Reference: US20180072811A1 (GENERAL HOSPITAL, published 2018)

Target: T1, chondroitin sulfate proteoglycan 4 (CSPG4), human (human, UniProt Q6UVK1 30-2322)
T1 construct: whole, on cells; Cell surface proteoglycan; also called MCSP; NG2
Experiment: reactivity of single scFv clones with CSPG4+ SK-MEL-28 melanoma cells and CSPG4- LG2 B lymphoid cells

T1 sequence (Q6UVK1 30-2322): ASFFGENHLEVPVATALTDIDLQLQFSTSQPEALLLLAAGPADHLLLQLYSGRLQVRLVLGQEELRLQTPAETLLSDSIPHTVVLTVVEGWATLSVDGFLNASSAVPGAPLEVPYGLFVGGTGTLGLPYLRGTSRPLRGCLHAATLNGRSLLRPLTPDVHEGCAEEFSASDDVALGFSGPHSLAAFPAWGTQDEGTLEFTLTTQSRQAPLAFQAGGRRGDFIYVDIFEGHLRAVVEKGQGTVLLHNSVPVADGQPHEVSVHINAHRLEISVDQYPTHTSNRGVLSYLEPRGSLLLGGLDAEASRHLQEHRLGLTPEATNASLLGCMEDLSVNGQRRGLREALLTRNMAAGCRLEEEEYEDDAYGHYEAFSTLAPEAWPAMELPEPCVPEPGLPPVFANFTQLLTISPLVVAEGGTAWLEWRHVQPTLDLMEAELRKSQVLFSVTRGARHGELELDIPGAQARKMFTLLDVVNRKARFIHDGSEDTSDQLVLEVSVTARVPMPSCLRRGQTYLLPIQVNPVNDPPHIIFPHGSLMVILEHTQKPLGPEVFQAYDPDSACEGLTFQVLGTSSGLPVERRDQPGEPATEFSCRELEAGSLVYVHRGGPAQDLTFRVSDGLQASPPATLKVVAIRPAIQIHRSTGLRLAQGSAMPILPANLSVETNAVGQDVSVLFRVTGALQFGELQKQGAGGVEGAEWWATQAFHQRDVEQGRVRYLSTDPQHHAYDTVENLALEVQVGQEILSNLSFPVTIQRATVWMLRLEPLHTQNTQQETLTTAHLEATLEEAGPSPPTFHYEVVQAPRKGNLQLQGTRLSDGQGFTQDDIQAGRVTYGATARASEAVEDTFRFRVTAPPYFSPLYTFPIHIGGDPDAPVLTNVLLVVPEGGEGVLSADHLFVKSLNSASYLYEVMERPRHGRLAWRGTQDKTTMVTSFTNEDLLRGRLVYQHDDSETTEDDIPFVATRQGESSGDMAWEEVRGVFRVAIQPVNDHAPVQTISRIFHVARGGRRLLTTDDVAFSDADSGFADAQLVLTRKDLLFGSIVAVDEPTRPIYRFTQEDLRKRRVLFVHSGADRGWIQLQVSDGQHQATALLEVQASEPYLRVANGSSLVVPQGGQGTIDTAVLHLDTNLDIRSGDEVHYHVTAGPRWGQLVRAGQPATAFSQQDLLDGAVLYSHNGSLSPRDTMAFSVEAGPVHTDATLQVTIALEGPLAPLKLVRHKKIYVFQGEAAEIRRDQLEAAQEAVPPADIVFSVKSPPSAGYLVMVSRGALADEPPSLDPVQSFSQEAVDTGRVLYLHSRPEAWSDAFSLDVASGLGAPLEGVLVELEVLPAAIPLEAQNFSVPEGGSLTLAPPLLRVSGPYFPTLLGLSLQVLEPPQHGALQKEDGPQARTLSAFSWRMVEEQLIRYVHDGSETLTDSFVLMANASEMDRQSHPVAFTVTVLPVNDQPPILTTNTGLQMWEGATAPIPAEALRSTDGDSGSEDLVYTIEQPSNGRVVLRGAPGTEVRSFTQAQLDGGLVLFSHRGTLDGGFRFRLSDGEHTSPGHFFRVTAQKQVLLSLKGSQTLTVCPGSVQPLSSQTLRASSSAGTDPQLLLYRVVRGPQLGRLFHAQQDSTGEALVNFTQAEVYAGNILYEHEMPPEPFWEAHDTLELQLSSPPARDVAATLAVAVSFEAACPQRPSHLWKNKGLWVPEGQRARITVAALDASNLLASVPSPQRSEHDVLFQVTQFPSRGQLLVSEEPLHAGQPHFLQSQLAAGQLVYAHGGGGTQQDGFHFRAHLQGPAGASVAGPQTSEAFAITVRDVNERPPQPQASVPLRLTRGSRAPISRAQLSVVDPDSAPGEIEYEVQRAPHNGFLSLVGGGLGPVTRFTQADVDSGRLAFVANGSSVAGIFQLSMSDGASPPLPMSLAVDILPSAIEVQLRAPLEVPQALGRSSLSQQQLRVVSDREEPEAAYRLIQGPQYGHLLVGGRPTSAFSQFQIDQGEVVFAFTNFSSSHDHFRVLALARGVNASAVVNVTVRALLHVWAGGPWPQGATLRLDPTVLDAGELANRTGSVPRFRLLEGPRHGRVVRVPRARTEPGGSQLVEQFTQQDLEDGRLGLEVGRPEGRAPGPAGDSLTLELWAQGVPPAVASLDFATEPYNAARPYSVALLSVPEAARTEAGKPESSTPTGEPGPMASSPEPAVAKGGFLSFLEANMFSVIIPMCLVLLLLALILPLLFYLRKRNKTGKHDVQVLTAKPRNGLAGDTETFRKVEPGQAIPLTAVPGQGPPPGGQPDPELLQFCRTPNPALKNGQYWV

B1: scFv SK5 (scFv)
scFv: MAEVQLVESGGGVVRPGGSLRLSCAASGFTFDDYGMSWVRQAPGKGLEWVSGINWNGGSTGYADSVKGRFTISRDNAKNSLYLQMNSLRAEDTAVYYCARGVLSRYFDYWGQGTLVTVSSGGGGSGGGGSGGGGSEIELTQSPATLSLSPGERATLSCRASQSVSSYLAWYQQKPGQAPRLLIYDASNRATGIPARFSGSGSGTDFTLTISSLEPEDFAVYYCQQRSNWPPAFGGGTKVEIKRAA
notes: Fully human scFv from a semi-synthetic phage display library; Tested as soluble scFv in supernatant with a c-Myc tag, detected through mAb 9E10; also called CSPG4-specific human scFv SK5
**Q.** Does B1 bind?
**A.** Result: binds
